Patent US20160115199A1 (AADIGEN, published 2016)
Where no end group is shown, it is not given here.

Legend:
[1] = molecular target: HIV integrase (HIV-1, UniProt P03367 1160-1447); assay: cell-based or functional assay
[2] = molecular target: cdk2/cyclin A complex (UniProt P24941 1-298; P20248 1-432); assay: cell-based or functional assay

Binder | IC50 of viral replication (RT activity) on PBMC infected by HIV-1 LAI, PC4D delivered by Short 4 [1] | IC50 of viral replication (RT activity) on PBMC infected by HIV-1 LAI, PC4D delivered by VEPEP-3i [1] | IC50 of viral replication (RT activity) on PBMC infected by HIV-1 LAI, PC4D delivered by VEPEP-3j [1] | IC50 of cell proliferation, Hela cells, C4 delivered by VEPEP-4 [2] | IC50 of cell proliferation, MCF7 cells, C4 delivered by VEPEP-4 [2]
RWTEWEWW (also: cyclic, mode of cyclisation not given here) [PC4 cyclic peptide (RWTEWEWW)] | 370 pM | 240 pM | 170 pM | – | –
KKQVRMAHLVLT (also: FITC or Cy5 label, position not given here) [C4 peptide (KKQVRMAHLVLT)] | – | – | – | 50000 pM | 60000 pM
